# Earlier results in publication PMC7708053.
# Target: T1, hnRNP L (cited Kd) (UniProt P14866)
# T1 sequence: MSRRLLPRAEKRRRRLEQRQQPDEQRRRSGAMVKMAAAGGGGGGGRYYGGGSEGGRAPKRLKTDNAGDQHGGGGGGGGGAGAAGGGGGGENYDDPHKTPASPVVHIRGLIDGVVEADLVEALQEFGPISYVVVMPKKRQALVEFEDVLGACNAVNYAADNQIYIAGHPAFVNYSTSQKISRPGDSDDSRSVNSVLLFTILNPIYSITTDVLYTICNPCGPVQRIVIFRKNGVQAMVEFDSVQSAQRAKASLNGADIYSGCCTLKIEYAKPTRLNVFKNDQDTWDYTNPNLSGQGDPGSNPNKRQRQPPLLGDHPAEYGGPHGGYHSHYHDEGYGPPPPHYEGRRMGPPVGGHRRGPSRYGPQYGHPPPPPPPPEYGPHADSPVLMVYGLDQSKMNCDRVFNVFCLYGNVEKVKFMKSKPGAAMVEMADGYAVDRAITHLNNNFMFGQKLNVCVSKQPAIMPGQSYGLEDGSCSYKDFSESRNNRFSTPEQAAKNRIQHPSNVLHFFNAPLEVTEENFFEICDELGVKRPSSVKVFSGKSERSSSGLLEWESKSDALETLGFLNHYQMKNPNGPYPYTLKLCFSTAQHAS
# Assay: not stated (cited)
# Settings: 50 pmol biotinylated RNA on streptavidin beads with HeLa lysate in RIPA (50 mM Tris-Cl pH 7.4, 150 mM NaCl, 5 mM EDTA, 1% NP-40), washed at 300 mM KCl …
sequence,measurement,value
AUACAUGACACACACACGCA [CA-SELEX#51 20-mer],Kd,7.2 nM
